Measurements reported in publication PMC3852661, “Structural basis of SUFU–GLI interaction in human Hedgehog signalling regulation” (Acta Crystallographica Section D: Biological Crystallography, 2013).

Key:
Format in all cases: binding
[1] = target: T1, MBP-SUFU-FL (Homo sapiens, UniProt Q9UMX1); assay: Thermal stability assay with peptide, MBP-SUFU-FL; conditions: 44 µM peptide, 2.2 µM protein, SYPRO Orange, 50 mM Na HEPES pH 7.0, 50 mM NaCl, 5 mM β-mercaptoethanol; triplicate
T1 construct: containing residues 32–483 of human SUFU and a C-terminal hexahistidine tag; hexahistidine tag (C); made in house; host or cells: Escherichia coli JM109 (DE3)
T1 sequence (Q9UMX1 32-483, other chains not shown): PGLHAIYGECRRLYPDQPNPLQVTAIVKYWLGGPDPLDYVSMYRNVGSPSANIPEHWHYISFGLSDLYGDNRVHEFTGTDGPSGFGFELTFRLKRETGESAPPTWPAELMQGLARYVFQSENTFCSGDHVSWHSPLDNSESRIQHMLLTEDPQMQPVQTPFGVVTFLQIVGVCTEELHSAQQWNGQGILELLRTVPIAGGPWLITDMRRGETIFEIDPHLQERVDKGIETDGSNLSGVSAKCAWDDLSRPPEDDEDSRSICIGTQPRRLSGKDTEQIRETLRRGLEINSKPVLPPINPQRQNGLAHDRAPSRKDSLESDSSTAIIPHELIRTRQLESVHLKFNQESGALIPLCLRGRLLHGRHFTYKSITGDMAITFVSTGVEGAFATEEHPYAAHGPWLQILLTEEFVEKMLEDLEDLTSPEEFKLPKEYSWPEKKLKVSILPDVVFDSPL
Description: (§1) Recombinant MBP-SUFU proteins were diluted to 2.6 μM in 50 mM Na HEPES pH 7.0, 50 mM NaCl, 5 mM β-mercaptoethanol; the peptides GLI1p and GLI1p-SH (Supplementary Table S1b), synthesized by Dr W. Mawby (University of Bristol), were dissolved in the same buffer. Proteins were spun at 14 000g for 20 min at 4°C before adding SYPRO Orange (Molecular Probes) to a final concentration of 6×. Reaction volumes of 25 μl were prepared in 96-well PCR plates with 2.2 μM protein/SYPRO Orange solution and, where applicable, 44 μM peptide. Plates were sealed with optical tape, heated from 20 to 90°C in 12 s 0.2°C steps in an iCycler and fluorescence was detected using an excitation wavelength of 470 nm and an emission wavelength of 570 nm. To determine whether the IDR affects the GLI-binding properties of SUFU, we used a human GLI1-derived peptide (GLI1p; residues 115-131; Supplementary Table S1b) containing the highly conserved SYGH motif important for interaction with SUFU (Dunaeva et al., 2003[▶]) in a thermal stability assay with MBP-SUFU-FL and MBP-SUFU-Δ (Fig. 4 ▶ a). The addition of GLI1p stabilized both proteins: T m for MBP-SUFU-FL was shifted by 4°C and that for MBP-SUFU-Δ was shifted by 3.6°C. […] The GLI1 dose dependency of this effect was confirmed in a separate experiment with increasing GLI1p concentrations (Supplementary Fig. […]).

[2] = target: T2, MBP-SUFU-Δ (Homo sapiens, UniProt Q9UMX1, DEL285-359/L360P/P281R/P282G/R280S/S279P); assay: SYPRO Orange initial fluorescence upon peptide addition, MBP-SUFU-Δ; conditions: excitation 470 nm, emission 570 nm, pH 7.0
T2 construct: subcloning different SUFU32–483 variants into vector pLJMBP4c; His tag (as in MBP-SUFU-FL; purified on HisTrap) (C); made in house; host or cells: Escherichia coli JM109 (DE3)
T2 sequence (Q9UMX1 with tags, fused parts or gaps S279P/R280S/P281R/P282G/DEL285-359/L360P limits assumed, other chains not shown): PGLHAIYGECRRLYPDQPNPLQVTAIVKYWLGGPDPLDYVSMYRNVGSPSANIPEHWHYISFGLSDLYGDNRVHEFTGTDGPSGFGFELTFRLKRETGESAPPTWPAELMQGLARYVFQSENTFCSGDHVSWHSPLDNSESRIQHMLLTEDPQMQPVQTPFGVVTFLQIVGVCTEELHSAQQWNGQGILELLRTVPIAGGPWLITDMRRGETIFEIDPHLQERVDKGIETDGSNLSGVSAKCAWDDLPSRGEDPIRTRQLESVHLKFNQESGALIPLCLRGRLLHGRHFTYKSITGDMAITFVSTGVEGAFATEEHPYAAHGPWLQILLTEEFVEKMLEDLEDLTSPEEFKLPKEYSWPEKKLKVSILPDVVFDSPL
Description: Recombinant MBP-SUFU proteins were diluted to 2.6 µM in 50 mM Na HEPES pH 7.0, 50 mM NaCl, 5 mM β-mercaptoethanol; the peptides GLI1p and GLI1p-SH (Supplementary Table S1b), synthesized by Dr W. Mawby (University of Bristol), were dissolved in the same buffer. Proteins were spun at 14 000g for 20 min at 4°C before adding SYPRO Orange (Molecular Probes) to a final concentration of 6×. Reaction volumes of 25 µl were prepared in 96-well PCR plates with 2.2 µM protein/SYPRO Orange solution and, where applicable, 44 µM peptide. Plates were sealed with optical tape, heated from 20 to 90°C in 12 s 0.2°C steps in an iCycler and fluorescence was detected using an excitation wavelength of 470 nm and an emission wavelength of 570 nm.
Recombinant MBP-SUFU constructs were diluted to 2.5 µM in 50 mM Na HEPES pH 7.0, 50 mM NaCl, 5 mM β-mercaptoethanol and spun at 14 000g for 20 min at 4°C before the addition of SYPRO Orange to a final 5× concentration of dye. The fluorescence of 100 µl samples was measured in black 96-well plates (Nunc) using excitation at λ = 470 nm and emission at λ = 570 nm. GLI1p or GLI1p-SH peptides prepared in the same buffer as above were added in the given ratios and mixed before a second reading was taken. Readings post-peptide addition were divided by the corresponding pre-peptide addition measurements to obtain normalized results. […]

[3] = target: T2, MBP-SUFU-Δ; assay: Thermal stability assay with peptide, MBP-SUFU-Δ; conditions: 44 µM peptide, 2.2 µM protein, SYPRO Orange, 50 mM Na HEPES pH 7.0, 50 mM NaCl, 5 mM β-mercaptoethanol; triplicate
Description: as §1

## GLI1p: human GLI1-derived peptide; residues 115–131, containing the highly conserved SYGH motif (TSPGGSYGHLSIGTMSP)
[1]
  Tm shift: 4 °C
[2]
  initial fluorescence upon addition of GLI1p: no such effect
[3]
  Tm shift: 3.6 °C
